Biological target: PapMV coat protein CPΔN5 (disks) (Papaya mosaic virus) (UniProt P16596)
Assay: EMSA
Details: shift with 500 ng (22 pmol as printed) protein in 10 µl, 165 fmol RNA; cooperative; weak affinity; room temperature 60 min

## PapMV 5' non-coding 80 nt RNA probe
  binding: 500 ng

Reference: patent US9339535
